From patent publication US20210163590A1 (WUXI BIOLOGICS IRELAND, published 2021)

Assays:
W340-cynoPro1.ECD.Fc = biological target: T1, W340-cynoPro1.ECD.Fc (cynomolgus monkey, UniProt A0A2K5U3G7 22-195); assay: SPR (Biacore 8K); cyno TIM-3 ECD on CM5 chip, antibody as analyte, 1:1 fit
T1 construct: extracellular domain; also called cynomolgus monkey TIM-3.ECD protein; not shown: C-terminal Fc tag
T1 sequence: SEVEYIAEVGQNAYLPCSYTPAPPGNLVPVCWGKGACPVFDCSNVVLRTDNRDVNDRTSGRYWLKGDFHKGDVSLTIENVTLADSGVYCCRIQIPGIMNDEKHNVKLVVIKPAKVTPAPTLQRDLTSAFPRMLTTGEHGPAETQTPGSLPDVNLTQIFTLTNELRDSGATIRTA

human TIM-1 = biological target: T2, human TIM-1 (human, UniProt Q96D42 21-290, limits assumed); assay: ELISA on plate-coated human TIM-1
T2 sequence (looked up): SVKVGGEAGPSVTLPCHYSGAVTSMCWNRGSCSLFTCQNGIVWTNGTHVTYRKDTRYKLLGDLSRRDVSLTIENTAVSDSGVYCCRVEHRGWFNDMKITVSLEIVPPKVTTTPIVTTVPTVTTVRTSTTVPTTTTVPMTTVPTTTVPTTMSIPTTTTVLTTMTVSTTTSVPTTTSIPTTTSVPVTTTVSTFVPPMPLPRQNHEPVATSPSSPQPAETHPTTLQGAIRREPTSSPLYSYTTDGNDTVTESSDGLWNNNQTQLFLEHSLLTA
Source text: (§1) The binding of the antibodies to the plates was detected by corresponding HRP-conjugated 2nd antibodies (see FIGS. 3A-3C).

[1] = biological target: T3, cynomolgus monkey TIM-3 on the cell surface (cynomolgus monkey, UniProt A0A2K5U3G7 22-294); assay: flow cytometry on cyno TIM-3-expressing transfectant cells
T3 construct: whole, on cells; also called cyno TIM-3-expressing transfectant cells
T3 sequence: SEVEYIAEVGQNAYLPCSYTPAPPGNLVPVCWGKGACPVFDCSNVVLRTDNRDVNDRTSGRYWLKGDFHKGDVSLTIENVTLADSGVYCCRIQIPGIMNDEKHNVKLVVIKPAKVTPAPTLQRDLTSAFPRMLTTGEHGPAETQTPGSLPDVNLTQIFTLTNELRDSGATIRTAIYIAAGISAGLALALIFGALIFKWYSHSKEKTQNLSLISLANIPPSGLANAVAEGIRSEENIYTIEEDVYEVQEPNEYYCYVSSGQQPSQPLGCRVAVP
Procedure: Cross species binding (FACS): the binding of TIM-3 antibodies to cynomolgus monkey TIM-3 was determined by FACS. […] MFI of the cells was measured by a flow cytometer and analyzed by FlowJo.

human TIM-4 = biological target: T4, human TIM-4 (human, UniProt Q96H15 25-314, limits assumed); assay: ELISA on plate-coated human TIM-4
T4 sequence (looked up): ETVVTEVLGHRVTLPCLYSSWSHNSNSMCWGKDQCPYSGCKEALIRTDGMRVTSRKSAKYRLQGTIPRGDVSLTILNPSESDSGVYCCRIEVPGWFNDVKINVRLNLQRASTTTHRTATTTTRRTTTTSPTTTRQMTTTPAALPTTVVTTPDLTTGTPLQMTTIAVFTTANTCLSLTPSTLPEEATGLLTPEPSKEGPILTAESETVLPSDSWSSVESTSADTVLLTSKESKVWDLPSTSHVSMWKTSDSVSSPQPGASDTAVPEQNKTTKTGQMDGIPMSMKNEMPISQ
Source text: as §1

hTIM-3.ECD.his [2] = biological target: T5, hTIM-3.ECD.his (human, UniProt Q8TDQ0 22-202); assay: SPR Koff ranking; antibody captured on anti-human IgG GLM chip, analyte W340-hPro1.ECD.His
T5 construct: extracellular domain; also called W340-hPro1.ECD.His; human TIM-3 (SPR analyte); not shown: C-terminal His tag

hTIM-3.ECD.his [3] = biological target: T5, hTIM-3.ECD.his; assay: SPR, full kinetics

B1: W3402-2.131.17-z3 (antibody, IgG4, V domains shown)
VH: QVQLQESGPGLVKPSETLSLTCTVSGFSLTNYGVGWIRQPPGKGLEWIGIMTSGGSTYYNSALRARVTINRDTSKNQFSLKLSSVTAADTAVYYCTRDGTTVETLFDYWGQGTMVTVSS
VL: DIVMTQTPLSLSVTPGQPASISCRSSQSLSDSAGITYLYWYLQKPGQSPQLLIYLASNLGSGVPDRFSGSGSGTDFTLKISRVEAEDVGVYYCMQGIHVPLTFGQGTKLEIK
notes: Humanized monoclonal antibody with a kappa light chain; also called W3402-z3; humanized variant W3402-z3
Kd (W340-cynoPro1.ECD.Fc): 0.0209 nM
binding result (human TIM-1): no binding (tested: 66.7 nM)
EC50 [1]: 0.32 nM
binding result (human TIM-4): no binding (tested: 66.7 nM)

B2: chimeric W3402-x (antibody, human IgG4, V domains shown)
VH: QVQLKESGPGLVQSSQTLSLTCTVSGFSLTNYGVGWIRQPPGKGLEWIAIMTSGGSTYYNSALRARLNINRDTSKSQVFLEVNSLHTEDTATYFCTRDGTTVETLFDYWGQGLMVTVSS
VL: DVVLTQTPSTLSAIIGQSVSISCRSSQSLSDSAGITYLYWYLQRPGQSPQLLIYLASNLGSGVPNRFSGSGSGTDFTLKISGVEPEDLGVYHCMQGIHVPLTFGSGTKLEIK
notes: also called parental chimeric W3402-x; Parental xAb
koff (hTIM-3.ECD.his [2]): 1.95e-06 s⁻¹
Kd (hTIM-3.ECD.his [3]): 0.00937 nM
koff (hTIM-3.ECD.his [3]): 2.12e-05 s⁻¹
kon (hTIM-3.ECD.his [3]): 2.26e+06 M⁻¹ s⁻¹
